Assay results taken from paper PMC8187361, “Nanoscale architecture of a VAP-A-OSBP tethering complex at membrane contact sites” (Nature Communications, 2021).
Substitutions are numbered along the chain they refer to. In names and notes the source's numbering stands.

B1: N-PH-FFAT (domain or fragment, UniProt P22059 1-408, looked up)
chain: MAATELRGVVGPGPAAIAALGGGGAGPPVVGGGGGRGDAGPGSGAASGTVVAAAAGGPGPGAGGVAAAGPAPAPPTGGSGGSGAGGSGSAREGWLFKWTNYIKGYQRRWFVLSNGLLSYYRSKAEMRHTCRGTINLATANITVEDSCNFIISNGGAQTYHLKASSEVERQRWVTALELAKAKAVKMLAESDESGDEESVSQTDKTELQNTLRTLSSKVEDLSTCNDLIAKHGTALQRSLSELESLKLPAESNEKIKQVNERATLFRITSNAMINACRDFLMLAQTHSKKWQKSLQYERDQRIRLEETLEQLAKQHNHLERAFRGATVLPANTPGNVGSGKDQCCSGKGDMSDEDDENEFFDAPEIITMPENLGHKRTGSNISGASSDISLDEQYKHQLEETKKEKRTR
notes: OSBP residues 1-408 (N-terminal region, PH domain, central core, FFAT motif), lacking the ORD; also called 1-408-OSBP; NH-FFAT
B2: OSBP CC[G324C] (C224A/C276A/G324C) (domain or fragment, UniProt P22059 199-324, looked up)
chain: VSQTDKTELQNTLRTLSSKVEDLSTANDLIAKHGTALQRSLSELESLKLPAESNEKIKQVNERATLFRITSNAMINAARDFLMLAQTHSKKWQKSLQYERDQRIRLEETLEQLAKQHNHLERAFRC
modifications: AF-488, AF-568 or both dyes on the introduced cysteine C324 in the FRET experiments; unlabelled in gel filtration
notes: Cloned via BamH1/Xma1 into pGEX-4T2; source: E. coli Bl21gold, purified (Glutathione-Sepharose, thrombin, MonoS, Superose 12)
B3: OSBP Central Core (CC), wild type (domain or fragment, UniProt P22059 199-324, looked up)
chain: B2 chain with A26C, A78C, C126G
notes: The methods describe cloning (pGEX-4T2, GST tag, thrombin cleavage) and purification only for the cysteine mutants; also called OSBP CC; source: E. coli, purified
B4: VAP-A (natural protein, human, UniProt Q9P0L0 8-249, looked up)
chain: MAKHEQILVLDPPTDLKFKGPFTDVVTTNLKLRNPSDRKVCFKVKTTAPRRYCVRPNSGIIDPGSTVTVSVMLQPFDYDPNEKSKHKFMVQTIFAPPNTSDMEAVWKEAKPDELMDSKLRCVFEMPNENDKLNDMEPSKAVPLNASKQDGPMPKPHSVSLNDTETRKLMEECKRLQGEMMKLSEENRHLRDEGLRLRKVAHSDKPGSTSTASFRDNVTSPLPSLLVVIAAIFIGFFLGKFIL
notes: VAP-A, human, Q9P0L0, fragment 8-249 with its C-terminal transmembrane helix; The methods give the fragment 8-249 and the results say full-length; Both tags were removed with TEV protease before size exclusion chromatography; also called full-length VAP-A; human VAP-A; source: E. coli C41 (DE3), membranes solubilised in DDM, purified (Strep-Tactin, TEV, Superdex 200); reconstituted in egg …

Key:
OSBP FFAT (Homo sapiens) = OSBP FFAT (Homo sapiens) (UniProt P22059); details: cited from earlier work
[1] = target: the molecule itself; experiment: cryo-EM structure; cryo-ET with sub-tomogram averaging of contact sites between VAP-A vesicles (LPR 70 mol/mol) and N-PH-FFAT on PI4P tubes; class with 20-25 nm membrane separation; VAP-A and N-PH-FFAT averaged separately
[2] = target: the molecule itself; experiment: SEC; analytical gel filtration, Superdex 75, 100 ul of 10 uM protein, 25 mM Tris pH 7.5, 120 mM NaCl, 1 mM DTT; Stokes radius against MW of standards
[3] = target: the molecule itself; experiment: SDS-PAGE without heating; purified VAP-A in DDM, with reducing agents; bands at ~55 kDa and ~25 kDa, a single band when the samples were heated
N-PH-FFAT = target: B1; experiment: membrane tethering seen by cryo-EM and cryo-ET; N-PH-FFAT or OSBP bound to GalCer/PI4P tubes (70 lipids/protein mol/mol), VAP-A proteoliposomes added (2 min incubation, or sequentially on the grid for 30 s), HK buffer, room temperature; details: both partners purified

In the case of VAP-A MSP (from UniProt Q9P0L0), the Kd (OSBP FFAT (Homo sapiens)) is given as 2000 nM.

For B1, the “stoichiometry N” value [1] was 2.

B2: binds [2].

With B3 the “stoichiometry N” value [2] was 2.

In the case of B4, the “stoichiometry N” value [3] is reported as 2 and the binding result (N-PH-FFAT) is reported as “binds”.
